We go through 2 substances from PMC7582951.

Where only a bound is given, the exact number is not on record here.

This assay concerns the target C0-C1-C2 region of the glutamate NMDAR NR1 subunit (mouse) (UniProt P35438). Description: pull-down; competition: 0.2 uM CaM with NR1 C0-C1-C2 covalently attached to NHS-activated Sepharose, 2.5 mM CaCl2, increasing concentrations of σ1R WT or E102Q; bound CaM and σ1R by western blot. In general terms: In western blotting, separated proteins are transferred to a membrane and probed.
Sequence of UniProt P35438 (P35438 834-938): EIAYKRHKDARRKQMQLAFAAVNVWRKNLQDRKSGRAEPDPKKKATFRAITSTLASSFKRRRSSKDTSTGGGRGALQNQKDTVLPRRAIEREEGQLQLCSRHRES

The substance “sigma receptor type 1 (σ1R) E102Q mutant (from UniProt O55242 1-223) (natural protein)” returned a concentration that prevented the binding of 200 nM CaM to NR1 of less than 0.2 nM.

Substance “sigma receptor type 1 (σ1R), wild-type (from UniProt O55242 1-223) (natural protein)” showed a concentration that abolished the binding of 200 nM CaM to NR1 of 60 nM.
